The values below come from patent US20240190986A1 (ZHEJIANG NANOMAB TECHNOLOGY CENTER, published 2024).

Assay [1] concerns the target T1, segment III of MSLN expressed on HEK293T cells (UniProt Q13421 487-598, limits assumed).
T1 construct: domain: segment III of MSLN; also called HEK293T MSLN-III cells; MSLN segment III protein overexpressing cell line
Kind of assay: flow cytometry on HEK293T cells expressing MSLN segment III, anti-human IgG PE secondary, fitted curve.

Assay [2] addresses T2, MSLN on SKOV3 and Aspc-1 tumor cells (UniProt Q13421 296-598).
T2 construct: whole, on cells; Endogenous mesothelin of tumor cell lines; also called SKOV3 tumor cell line; AsPC-1 tumor cell line
Nature of the assay: flow cytometry on SKOV3 tumor cells, anti-human IgG PE secondary, fitted curve. On the technique in general: In flow cytometry, cells or beads pass a laser one at a time.

For assay [3], the target named is T3, MSLN·His protein (human, UniProt Q13421 296-580, limits assumed).
T3 construct: Bought protein; also called human MSLN·His antigen; not shown: His tag
T3 sequence (Q13421 other isoform, or with tags, fused parts or gaps limits assumed): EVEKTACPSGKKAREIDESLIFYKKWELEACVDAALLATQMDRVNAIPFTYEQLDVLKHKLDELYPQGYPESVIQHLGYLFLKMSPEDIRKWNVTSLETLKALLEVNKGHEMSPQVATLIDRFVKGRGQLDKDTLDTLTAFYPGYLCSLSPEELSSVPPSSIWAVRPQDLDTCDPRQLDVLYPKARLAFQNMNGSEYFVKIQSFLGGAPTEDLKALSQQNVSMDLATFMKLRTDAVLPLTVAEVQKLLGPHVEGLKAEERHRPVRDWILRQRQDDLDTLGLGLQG
Nature of the assay: SPR (Biacore), antibody captured on protein A, MSLN·His as analyte. As for the experimental part:
(1) Detection of affinity at protein level: the binding kinetics and affinity of heavy chain antibody to human MSLN·His antigen were determined using surface plasmon resonance (SPR). The purified antibody was flowed through the sensor chips pre-immobilized with protein A, and the antibody was captured by protein A. Then five different concentrations of MSLN·His protein were used as the mobile phase, and the binding time and dissociation time were 30 min and 60 min, respectively. Biacore Evaluation Software 2.0 (GE) was used to analyze the binding rate (kon, or ka), dissociation rate (koff, or kd) and equilibrium constant (KD). The rabbit antibody YP218, which binds to segment III of mesothelin, was selected as a positive control (Zhang et al., Sci Rep 2015, 21; 5:9928).

The target in assay [4] is T2, MSLN on SKOV3 and Aspc-1 tumor cells. Nature of the assay: flow cytometry on Aspc-1 tumor cells, anti-human IgG PE secondary, fitted curve.
Assay [5] concerns the target T3, MSLN·His protein. Nature of the assay: ELISA, antigen coated, TG1 supernatant. In general terms: In an ELISA, binding on a coated surface is turned into a signal by an enzyme label.

As a reminder, the EC50 is the midpoint of the concentration-response curve. As a reminder, the Kd is a measure of binding affinity in units of concentration. Low readings indicate a tighter complex, high ones a looser complex. In general, koff refers to the rate constant with which the complex falls apart. A lower koff goes with a long-lived complex. As a reminder, the kon is the rate constant with which the complex forms.

T1 sequence (Q13421 495-606 limits assumed): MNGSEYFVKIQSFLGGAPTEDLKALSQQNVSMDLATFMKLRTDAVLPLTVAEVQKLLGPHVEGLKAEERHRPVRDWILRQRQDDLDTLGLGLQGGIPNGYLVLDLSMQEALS
T2 sequence (Q13421 other isoform, or with tags, fused parts or gaps limits assumed): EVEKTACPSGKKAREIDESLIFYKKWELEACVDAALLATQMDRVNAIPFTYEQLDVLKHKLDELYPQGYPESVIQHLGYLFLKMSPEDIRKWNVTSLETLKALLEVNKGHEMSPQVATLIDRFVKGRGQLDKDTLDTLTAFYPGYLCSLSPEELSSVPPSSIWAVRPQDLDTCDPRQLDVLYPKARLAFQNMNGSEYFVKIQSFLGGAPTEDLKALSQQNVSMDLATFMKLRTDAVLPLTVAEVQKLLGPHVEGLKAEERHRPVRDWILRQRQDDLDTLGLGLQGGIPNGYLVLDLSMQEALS

B1: M003-IgG4 (antibody, V domains shown)
VH: QVQLVESGGGLVQAGGSLRLSCTASGNIFSINAMGWYRQPPGKEWERELVATISSTNSDNTYYKESVKGRFTISTNTAKNTWYLQMNSLKPEDTAMYYCAAENFDRKDRYWAQGTQVTVSS
notes: also called M003 heavy chain antibody
Take B1: the EC50 worked out at 4.95 nM in assay [1], 1.62 nM in assay [2] and 5.31 nM in assay [4]. In addition, in the assay with MSLN·His protein [3], the affinity, expressed as Kd, was 0.49 nM. In the assay with MSLN·His protein [3], this molecule showed a koff of 0.000429 s⁻¹. This molecule also came in with a kon with MSLN·His protein [3] of 882000 M⁻¹ s⁻¹.

B2: M2339-IgG4 (antibody, V domains shown)
VH: QLQLGASGGGLVQPGGSLRLSCALSGFTLRELDEFAIGWFRQAPGKEREGVSCISGTGGITHYADSVKGRFTISRDIAKTTVYLQMNSLNSEDTAVYYCAADERCTDRLIRPPTYWGQGTQVTVSS
notes: also called M2339 heavy chain antibody
In the assay with MSLN·His protein [3], B2 showed a Kd of 0.264 nM, a koff of 1.82e-05 s⁻¹ and a kon of 69000 M⁻¹ s⁻¹.

B3: M2339 (VHH)
VHH: B2 VH
notes: Nanoantibody in TG1 supernatant in the screening ELISA; also called clone M2339
As for B3, the “ELISA (OD450)” value in the assay with MSLN·His protein [5] is 2.15 OD450.

B4: M119-IgG4 (antibody, V domains shown)
VH: EVQLVESGGGLVQPGGSLRLSCVASGSDLSFDAMGWYRQFSATVRERQLVVATSRDGRIYYGDSVKGRFTASRDNLKNSVDLEMNNLKPEDTAIYYCAAGDDPKNYDWGPGTQVTVSS
notes: also called M119 heavy chain antibody
With B4, the EC50 in assay [1] amounted to 3.91 nM. In assay [2], this molecule registered an EC50 of 1.63 nM. In addition, in the assay with MSLN·His protein [3], the Kd was determined as 0.12 nM, the koff came to 9.58e-05 s⁻¹ and the association rate constant (kon) is 826000 M⁻¹ s⁻¹. This molecule gave an EC50 in assay [4] of 4.25 nM.

B5: M044-IgG4 (antibody, V domains shown)
VH: QVQVVESGGGFVQAGGSLRLSCAASTPIISIAYMGWYRQISEKERQLVATINSGGKTYYADSVKGRFTISRDNAKNTLYLQMNMLKPEDTGMYYCAASNKDYNDYDPDWGQGTQVTVSS
notes: also called M044 heavy chain antibody
As for B5, the 50% effective concentration (EC50) in assay [1] worked out at 10.6 nM; in assay [2] it was 0.512 nM; in assay [4], 17.4 nM. The Kd with MSLN·His protein [3] turned out to be 2.1 nM. In the assay with MSLN·His protein [3], this molecule displayed a koff of 7.5e-05 s⁻¹. The kon with MSLN·His protein [3] came to 53700 M⁻¹ s⁻¹.

B6: M156-IgG4 (antibody, V domains shown)
VH: QVQLVESGGGLVQAGGSLRLSCAVSGISFEYYAIGWFRQAPGKEREAVSCTTSGTTSGGGVTDYADSLKGRFTISRDVAKNTVYLQMNNLTPEDTAVYYCAADIHCRGYVLFVPSDFGNWGQGTQVTVSS
notes: also called M156 heavy chain antibody
Molecule B6 returned an EC50 in assay [1] of 4.15 nM. The molecule further came in with a concentration giving a half-maximal response (EC50) in assay [2] of 1.05 nM. In the assay with MSLN·His protein [3], this molecule registered a Kd of 0.09 nM, a koff of 5.4e-05 s⁻¹ and a kon of 592000 M⁻¹ s⁻¹. In addition, in assay [4], the EC50 was determined as 5.37 nM.

B7: M344-IgG4 (antibody, V domains shown)
VH: QVQLVESGGGLVQSGGSLRLSCVASGSAFSFDAMGWYRQFSATRRERQLVVATSRDGRTYYADSVKGRFTATRDNSKNSLYLEMNSLKPEDTAIYYCAAGDDPKNYSWGQGTQVTVSS
notes: also called M344 heavy chain antibody
Regarding B7, the EC50 in assay [1] was found to be 3.39 nM; in assay [2] it was 1.36 nM; in assay [4], 3.59 nM. The molecule further returned a Kd with MSLN·His protein [3] of 0.07 nM. In the assay with MSLN·His protein [3], this molecule gave an off-rate (koff) of 2.35e-05 s⁻¹. In the assay with MSLN·His protein [3], this molecule gave a kon of 359000 M⁻¹ s⁻¹.

B8: M129-IgG4 (antibody, V domains shown)
VH: QVQLVESGGGSAQAGGSLILSCVASANLFTIDALGWYRQAPGPKRELVAAISSGGNKYYADAVKGRFTISRDTLTKTMWLQMNNLKPEDTAMYYCAAEDYGLGQRSWGMGTQVTVSS
notes: also called M129 heavy chain antibody
Take B8: in assay [1], the EC50 was 6.24 nM. In assay [2], the concentration for a half-maximal effect (EC50) stood at 1.85 nM. In the assay with MSLN·His protein [3], this molecule showed a Kd of 0.04 nM, a koff of 5.37e-05 s⁻¹ and an association rate constant (kon) of 1.4e+06 M⁻¹ s⁻¹. Besides, in assay [4], the EC50 stood at 2.79 nM.
